# Publication PMC12120875
# Target: VqERF1B-mCherry (Vitis quinquangularis accession 'Danfeng-2')
# Experiment: FRET or BRET
substance,measurement,value
VqERF062-GFP (natural protein),FRET efficiency,32%
